This note sets out measurements from publication PMC2683827.

The target of this test is paclitaxel stabilized microtubules (UniProt P02550). The experiment in a line: co-sedimentation; tau 0-10 μM mixed with paclitaxel stabilized microtubules (1.6 μM tubulin dimers, 20 μM paclitaxel) in 80 mM PIPES pH 7.0, 2 mM MgCl2, 0.5 mM EGTA; 30 min at room temperature; 100,000 x g for 5 min at 23°C; tau in the pellet measured by gel densitometry or western blot; noncooperative single-site fit; unphosphorylated and GSK-3β phosphorylated tau.
Chain of UniProt P02550 (P02550 whole entry, looked up): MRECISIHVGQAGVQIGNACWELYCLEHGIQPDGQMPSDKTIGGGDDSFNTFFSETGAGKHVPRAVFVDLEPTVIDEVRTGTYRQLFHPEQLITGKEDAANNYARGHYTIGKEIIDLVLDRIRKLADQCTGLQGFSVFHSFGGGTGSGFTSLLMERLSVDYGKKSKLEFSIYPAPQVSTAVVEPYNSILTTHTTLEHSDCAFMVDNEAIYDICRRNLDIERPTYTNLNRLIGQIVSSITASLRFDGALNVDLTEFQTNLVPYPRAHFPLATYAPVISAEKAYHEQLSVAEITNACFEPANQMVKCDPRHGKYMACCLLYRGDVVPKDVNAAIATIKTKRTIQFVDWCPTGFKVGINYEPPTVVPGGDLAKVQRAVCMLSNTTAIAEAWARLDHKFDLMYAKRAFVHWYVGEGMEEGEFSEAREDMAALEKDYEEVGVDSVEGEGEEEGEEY

As for “GSK-3β phosphorylated tau isoform 1N3R (from UniProt P10636-4 1-381) (natural protein)”, the fold decrease in microtubule affinity upon GSK-3β phosphorylation, against the unphosphorylated isoform is 3 fold.

The substance “GSK-3β phosphorylated tau isoform 1N4R (from UniProt P10636-7 1-412) (natural protein)” registered a fold decrease in microtubule affinity upon GSK-3β phosphorylation, against the unphosphorylated isoform of 3 fold.
